The source of these data is paper PMC4874835 (Nature, 2016).

Data set [1] has as its target cMCU-ΔNTD (C. elegans MCU residues 167-316, N-terminal domain deleted) (C. elegans) (UniProt Q21121). Put plainly: cross-linking.
For data set [2] the target is unchanged. Put plainly: SEC-MALS.
For data set [3] the target is unchanged. Put plainly: negative stain EM.
Data set [4] concerns the molecule itself. As to the kind of experiment: cross-linking.

With “cMCU-ΔNTD (C. elegans MCU residues 167-316, N-terminal domain deleted) (from UniProt Q21121 167-316) (domain or fragment)”, the stoichiometry N in data set [1], in data set [2] and in data set [3] was 5 throughout.

With KQNFDIEKYNRLVTEVDELRNQLKRMRDPLE [CCH peptide (cMCU residues 288-316 plus C-terminal L and E)], the “stoichiometry N” value in data set [4] was found to be 5.
